# Values quoted from earlier work, collected in article PMC12394151.
# Biological target: IL-6R (Homo sapiens) (UniProt P08887)
# Experiment: BLI
# Details: cited from earlier work
# Chain of IL-6R (Homo sapiens) (P08887 20-355): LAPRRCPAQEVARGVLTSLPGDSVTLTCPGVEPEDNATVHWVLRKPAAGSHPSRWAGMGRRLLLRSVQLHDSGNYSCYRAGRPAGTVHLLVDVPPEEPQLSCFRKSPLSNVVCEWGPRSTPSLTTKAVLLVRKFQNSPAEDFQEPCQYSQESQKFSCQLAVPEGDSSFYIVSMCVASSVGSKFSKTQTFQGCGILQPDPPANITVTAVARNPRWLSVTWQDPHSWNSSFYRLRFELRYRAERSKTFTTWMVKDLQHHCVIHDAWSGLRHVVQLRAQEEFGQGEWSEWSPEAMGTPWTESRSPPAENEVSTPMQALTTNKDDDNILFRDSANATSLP
substance,measurement,value
Tocilizumab,Kd,38.8 nM
